Reference: a protein production outcome set (Wang et al. 2014)

Experiment: label from the status in PepcDB records
For “MKNGERARAGHGSPAAPGPTAGPGPAPAPGPTVVGREAEIAEIRSRIAADRSHSSVLIVEGDPGAGKSVLLDLAVRLTRGTGQRVLRAVGSESEASLAFAGLHQMLRPVLDDLGGLPARQRSALRTALGLAEDAEDAADTPDALLVGLAVLTLVSDLSEPAPLLVVVDDAQWIDRASLDVLSFLARRMAGEPVTLLMGVRAAAVLPGFDKGYERLEIGPLSGDAANRLLDEQPKRPTGRTRARILREAAGNPLALVELARATADREPEGSGVEGPLPVTDRLEGIFARHVRHLPEATRRALLLLAAADAADAPAAARGLPEAADTVWAPAERAGLVRQDGTGVSFRHPLVRSAVYHAAPFEQRRRAHLALARQLGEEPDRRAWHLAAAAVRPDEQVSAALRETAGRARRRGGHAAAAAALERAAELSPHRADQARLLADAADTAVFTGQLGWVEHLAAGARERSDDPALIGRAALATGRLLTLGPHHTAAFALLSRVADEAAATRSPRLLDALAAAAVVRYYSGEESQRQRIEALLADVPDSAAGGALRAWVLAVSDPSGAGASLAPALPRLIAAAKGEAGSLTALAVVAWLLDRTPLAARTFDEAFGRWQAHGPLPAGLACAAGWAYLEQGRWADARSVAAEIAEVASGAGLDHAEACARTLDATVLALLGEPAEARGSAERALALVAPLESRSVAVLARRALGLAAVAEGDYDSAYAQFRAAFTEDGDLVHYHVSPTVLAELAAAAVRRGHREPAARLLERSARHLGPGMSARLFLLVERGRALLAEPERAERHFRAALAGEAGEQWPFERAQTRLDYGEWLRRQRRVAEARPLLTGALDTFRRLGARPWIDRAKAELRAAGIEADAAAPGALTELSPQQQQIVRLAAHGLTNREIGERLFLSPRTVGSHLYRVFPKLGITARAQLRDLLDDALQATGSAQ”, the protein production was “failed”. With “MKNGGVFVSIALLVTITLVMGVIFVNGWTDAPNAIATAVSTRVLKPNVAIWMAVVMNFLGALVMTFFNAQVAETISNIVSFDANGNASQVALAASLFSIVVWAVAAWYFGIPTSESHALIAGLTGSAMALGGLGAVNGSEWIKVLVGLVVSTVMGFGGGYLIAKLVVKAFSAVPRRKANKFFTVGQAFGAGANAFLHGAQDGQKFMGVFMLVLFYNNLVEKTGGGFVIPLWVMVLCSITMGIGTSVGGMRIIKSVGMDMVKLERYQGFTADLSTAICLFLASAFGIPVSTTHTKTTAIMGVGASKRISSVDWRIVKEMLIAWILTFPGCGLIAYVMSKLFIAIF” the protein production was “failed”. With “MKNKGLIATLILLTILVVGELFYNKSEKRLNLSEKQVVKIGILQYVTHDALDAIEKGVEDGLAQEGYKGKKVKLTVLNAEADQSKIQAMSKQLVNHHNDILIGIATPSAQGLAASTKDTPIIMGAVSDPLGAKLVTNMKKPTTNVTGLSNVVPTKQTVQLIKDITPNIKRIGILYASSEDNSVSQVTEFTKYAQKAGLEVLKYSVPSTNEIKTSMSVMTKKVDAVFVPQDNTIASAFRTVIVAANQANIPVYSSVDTMVEQGSIASVAQSQYGLGLETAKQAIKVLRGKPVKDVPVKVIDTGKPSLNLKAAKHLGIKIPKKIMKQAEITVKVDD” the protein production was “failed”. In the case of “MKNKLAITKLSNNVFLLLCTALTFTPIANAAEVIELTIAEPSALKPDFIGYNANMMSAMSTNPWDRTELTQLYKNTGTSIIRYPGGTIANNFDWPTGNQIKINSSGEESLGSYDYKISNFKTGYQNAGFEPIFVVNLLTRDLQHTLDGLADATAKSLPINRIELGNEFFLKDEAYVDMFPSGQDYVSKADIWTDAIKAIYPHVEIAYVSTMKKDPRSLEWNEKISQCTKCDAIIIHTYTRSELNPVLPADKSTSYFGTNEEQNQQWQQFITNSGVDIMLAQPFEAWHGYTSLNNLPSDKKIWITEFNMKDGTGPTRNTWAHALFNANQLQSFLTDGRVEIALLHNLITGAKSGSHYLGNTFSGLTIDHGQGDLSSQKYSLSAGGIAMRAFGSVLKGMDTIAKINLSDTPTVSPTGYADYDAIYGWQGSNSANEEQRYLLINTSSVSYTVNTENLTTSNKSVRQYWTKPQTFIHSEEVLSGGMVNSLPTLLKLPAYSITVIGETAIELPSNYQQTLTLTATDDHFTKEANPNGKGQPTASQININNSEGDQSRPHIKFNTNQVKGSIESVTLKVYSESVTDTVSAHKINNEWDEYELTWNTMPTLGEFINSASADKNAWLEINVTASLLKSDSLLSFALTNSLTSLNKFSSKEGNKAPELIITTSNAVINVADTNITKDDANILQYYSNSLADAVSDDDNDKLSFYKTSGPSWLMLWSNGKIEGTPTADDIGENTFAIKVSDNTGQASATTALNLTINVISDAPTNAAPVWNNIQNILQQATENISYNSNILALATDADNDALIFAKVSGPDWLSLSDAGEVTGTATNSDIGENNVIVSVTDGTNNSNEFINNELIITVTAEIAVEPINNAPTWSNENIALELATQEQAYTNNIMTFTNDLDGDILVFAKVSGPQWLTLSEAGDITGTPSGNDIGENIFILSVTDSDSDTAQVINNTFTIIVSTKPEPEPTPKTEEDNSEGGSISFSLLLLCFLRVFTMRNKF”, the protein production is reported as “failed”. For “MKNKQSKSLLIKSMALTGLFTISACANEELADTLLTNTNIYGHNNATSLAIKDGKIVYIGDEQNAMNHVSNKTQVIDLKGGYLLPGFVDNHNHVFEAASEIGSDCLLDEDKDINGYIRSLRACKEELEEGEWLLGYGHELSQLMQDNDTSPLAILDEIFPNNPVIIMEQTSHSMWVNSLALAEAGITIHSKEPQGGKILKDKTTGKLLGILLDNAGDLLMEQAWKNQPNLAEANYQGLLNGLAQASKHGITTIGDGRLYWKRGWLETWLTAEKNQALTARVSLRPWVYPADEANEQLAFFKKIKSNDKQRLIQINQVKIYSDGIIINGTASTLDPYDWSYTPQIPHGLEYIPATKMAWWLSELNKIGYGAHIHAIGDAGVRNTLNAIETLRAQGATTAYSMTHLEMVSAQDIKRFAPLRVDADFQLGSDYIAEQDHDWAIPFIGKQRAHALLPINAILNTGANVTLSSDWNVNDINPLVGIANAVYLKNMGIADIHQAIAAYTINPAQALGLDDITGTLEVGKSADIVMLERDITQSTPKQIANTRVLMTWLEGEVVYDEQTE”, the protein production was “failed”. For “MKNLFLTSSFKDVVPLFTEFESNLQGKTVTFIPTASTVEEVTFYVEAGKKALESLGLLVEELDIATESLGEITTKLRKNDFIYVTGGNTFFLLQELKRTGADKLILEEIAAGKLYIGESAGAVITSPNIAYIQTMDSTKKAVNLTNYDALNLVDFSTLPHYNNTPFKEITQKIVTEYAGKSQIYPISNHEAIFIRGKEVITKRLS”, the protein production was “failed”. With “MKNLIFIATTFITTISLTNIAQAANQEHIRQLLATKQCQNCDLSGAGLVMADLTGANLSGANLAGANLSRANLSGADLRGANLSGAGLFGVNLSEAKLGGANLAGADLRSTFLSNAEFTGAYLQGTNFQGALGIPLQIATPDEFYALGVAEAQKGNQQQAINYFNQAIASKPEYAGAYLARGIARYQLFDRQGAAQDAQTAEKLFTSQDNATGIQTAQAFIKELQTPYTEKLSAGKPSFFDFLGSLGSVLLQFLPF” the protein production was “failed”. In the case of “MKNLKKKLLKLVKIFVIIFVCLAAFFVYIFIEPYWINEKTTTISDSDVPQNFEGKKIVFISDIHHGPYFERERVADLVRKVNELEPDIIILGGDYVSGDVGYIGACFEELSRLKADMGIFGVTGNHDEWTDYNLTVKCMENAGITVLSNRAEWLEIGDDKIKIAGVDWSTDWYFNSEPYVDPLIKDAEENDFVILVSHTPDLAEELTTDKVDLVLSGHTHGGQITFFGLWAPYVPSFYGQKYRTGIVKTDKTMALVSNGVGNTFLPIRFFARPQINIIILDHP”, the protein production is reported as “failed”. With “MKNMDEERKYGLYSLIIGLLCVIGIVMLNGLICYVLYIIAVPSLLYGIGAFIIPKTRRKDAGKLPFRGY” the protein production was “failed”. For “MKNRETDSNVVTLYVTRHGKTILNTNHRAQGWADSPLVEKGVEVATNLGTGLKDIHFMNAYSSDSGRAIETANLVLKYSEQSKLKLEQRKKLRELNFGIFEGEKLDNMWDAVGKAAGVTSPEELLKFSIQEVIDLIRAADPTKQAEDWELFSTRIKAEIDKISEEAAKDGGGNVLVVVHGLLITTLIEMLDSSKTKLGVENASVTKIVYQDGIYTVESVGDMSYVAKGKESVEI”, the protein production was “not failed”. For “MKNSFFSKFTPKEPKFFPLLKQLSDVLSASSVLLVESMEHDLPTERADYYKQIKDMEREGDRLTHLIFDELSTTFITPFDREDIHDLASCMDDVIDGINSSAKRIVIYNPRPISESGKELSRLIHEEAINIGKAMDELETFRKNPKPLRDYCTQLHDIENQADDVYELFITKLFEEEKDCIELIKIKEIMHELEKTTDAAEHVGKILKNLIVKYS”, the protein production was “not failed”. For “MKNTIDVENDSIIAFTGGRIFTMDSEQKHAETVVINGGCIAAVGDRSILKSFPNAKIRDLKGRVLLPAFIDSHNHLSSFGCFFPTWANLIGLTEKGSVLEEIQLQTRKKPGKGWIVGFGWFDAKIGGVDLTKNDLDEISSDRPVLLIQATFHQSVVNSRALELVGITRSTPDPRCGIILRESDGMPTGVLVECAQVPVFRLAMEADTGTLANLIEAHAKELLKFGITAVHDPGVTPAAEAAYQKLHSEERLPVSVLMMPHGETILDNQLGYRLHGPVTGVGDERLRVGPVKLFADGATEETVAFSLKIGGQTINSGNYRDDFEEMLFAATEKGFRVCVHSFGNVTTDAVLTAFENAVTRAPAGFEMRPRLEHVTLISTSQIKRLAAMGGCACIQPQFLSRAQNTKQVVLDDGKWYAYGDLVKGGVTVASGSDNPGGFMDARDPIEGSVMGSTMSDGAGNAIFPDQVLPFEQWLWMYTAGGAYAGGQEKERGMLKKGMVADLVVLEGNLDPKNPPVVAETWVAGKQVYDHRV”, the protein production was “failed”. In the case of “MKNYKIILTALCFICIFSCSKTETKKSIKYKDGVYKSFANIKDDWGGTAEVEIKIEEGKIVECTFLSYEKNGNLKGPEYGKVDGVIKNMGLYKIAQASVLKAAEYGQKLIETQNIDDVDVIAGASISYKLFKDAVENALQGAMQNAKENLEHHHHHH”, the protein production is reported as “failed”. For “MKNYTLISPCFFGMEKMLAREITNLGYEIIKTEDGRITYKTDEFGIAKSNMWLRCAERVHLKIAEFEAKSFDELFENTKRINWSRYIPYGAQFPISKASSIKSKLYSTPDVQAIVKKAIVESLKKSYLEDGLLKEDKEKYPIFVFIHKDKVTISIDTTGDALHKRGYREKANKAPIRETLAAGLIYLTPWKAGRVLVDPMCGSGTILIEAAMIGINMAPGLNREFISEKWRTLDKKIWWDVRKDAFNKIDNESKFKIYGYDIDEESIDIARENAEIAGVDEYIEFNVGDATQFKSEDEFGFIITNPPYGERLEDKDSVKQLYKELGYAFRKLKNWSYYLITSYEDFEYEFGQKADKKRKLYNGMLKTNFFQYPGPKPPRNNK”, the protein production was “not failed”. With “MKPENFTSEKIPASLDEVSLNYFAHDGNKREYLTYIPSGYSHTIEAPVILNFHGFGGTASGQLALSDWRDLAEKHGIILIYPQGLELQKGGSHWNPDPVSSDSKSISDDLGFVRRLLKRISKNYSIDKSRVYATGYSNGAGMAYGLAHHMPDLIAGIAPVSGLMNDEYLSTTSGGSPVGLISFNGEEDWVRPVNGINGYLASVADISSHWARENSSTQSIAEQFAQANGDRIERTSYSRDDGLTTVEQYLVDRGGHEWFDLDIEGKDLNQLAWQFLSRLRKQD” the protein production was “failed”.
